Tests used:
Assay in all cases: holdup assay
Parameters in all cases: key: below the threshold = too weak to quantify, mostly under pKd 3.1 to 4
[1] = molecular target: HTRA2, O43464
[2] = molecular target: Inadl_3, Q8NI35
[3] = molecular target: IL16_4, Q14005
[4] = molecular target: T1, DVL3, Q92997
T1 sequence (Q92997 244-331, limits assumed, looked up): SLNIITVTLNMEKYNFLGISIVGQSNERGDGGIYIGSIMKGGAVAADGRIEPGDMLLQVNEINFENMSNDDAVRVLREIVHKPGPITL

[5] = molecular target: T2, RADIL, Q96JH8
T2 sequence (Q96JH8 971-1071, limits assumed, looked up): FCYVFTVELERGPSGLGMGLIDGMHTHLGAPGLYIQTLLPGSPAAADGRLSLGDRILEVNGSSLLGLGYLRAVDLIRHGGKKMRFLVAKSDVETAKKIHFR

[6] = molecular target: NHERF4_4, Q86UT5
NHERF4_4, Q86UT5, sequence (Q86UT5 464-550): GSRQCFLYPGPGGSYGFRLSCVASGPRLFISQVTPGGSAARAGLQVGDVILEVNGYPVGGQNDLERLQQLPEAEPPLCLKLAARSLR

[7] = molecular target: T3, PTPN13_1, Q12923
T3 sequence (Q12923 1088-1188, limits assumed, looked up): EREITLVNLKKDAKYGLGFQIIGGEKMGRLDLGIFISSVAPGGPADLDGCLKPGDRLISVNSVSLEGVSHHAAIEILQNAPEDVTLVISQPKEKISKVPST

[8] = molecular target: T4, ARHGEF11, O15085
T4 sequence (O15085 42-136, limits assumed, looked up): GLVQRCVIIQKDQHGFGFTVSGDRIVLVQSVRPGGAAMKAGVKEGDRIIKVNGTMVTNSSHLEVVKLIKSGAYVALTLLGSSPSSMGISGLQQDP

[9] = molecular target: GIPC2, Q8TF65
GIPC2, Q8TF65, sequence (Q8TF65 112-203): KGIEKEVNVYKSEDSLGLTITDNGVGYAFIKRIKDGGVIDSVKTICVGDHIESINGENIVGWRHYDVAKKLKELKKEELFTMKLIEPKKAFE

[10] = molecular target: T5, SIPA1L2, Q9P2F8
T5 sequence (Q9P2F8 945-1036, limits assumed, looked up): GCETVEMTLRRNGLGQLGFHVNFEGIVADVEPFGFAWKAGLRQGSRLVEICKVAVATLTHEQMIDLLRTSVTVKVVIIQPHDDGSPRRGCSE

[11] = molecular target: T6, MPP6, Q9NZW5
T6 sequence (Q9NZW5 125-219, limits assumed, looked up): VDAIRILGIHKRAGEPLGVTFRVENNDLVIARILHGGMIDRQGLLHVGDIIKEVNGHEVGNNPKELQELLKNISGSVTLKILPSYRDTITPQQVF

[12] = molecular target: T7, MPDZ_5, O75970
T7 sequence (O75970 695-796, limits assumed, looked up): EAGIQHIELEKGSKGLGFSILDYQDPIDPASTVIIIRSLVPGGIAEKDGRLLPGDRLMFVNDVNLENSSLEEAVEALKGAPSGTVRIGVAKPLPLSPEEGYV

[13] = molecular target: MAGI1_2, Q96QZ7
MAGI1_2, Q96QZ7, sequence (Q96QZ7 456-580): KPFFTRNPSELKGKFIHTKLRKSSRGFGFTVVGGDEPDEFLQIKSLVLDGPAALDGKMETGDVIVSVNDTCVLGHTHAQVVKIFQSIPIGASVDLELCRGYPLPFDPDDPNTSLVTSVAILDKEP

[14] = molecular target: Inadl_6, Q8NI35
Inadl_6, Q8NI35, sequence (Q8NI35 1058-1167): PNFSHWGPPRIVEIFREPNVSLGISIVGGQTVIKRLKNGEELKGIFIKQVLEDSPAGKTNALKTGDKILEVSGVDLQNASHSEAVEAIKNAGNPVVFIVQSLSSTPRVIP

[15] = molecular target: T8, MPDZ_10, O75970
T8 sequence (O75970 1624-1722, limits assumed, looked up): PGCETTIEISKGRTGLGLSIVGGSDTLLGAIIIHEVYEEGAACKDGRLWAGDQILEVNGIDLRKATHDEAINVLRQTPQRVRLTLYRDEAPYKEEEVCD

[16] = molecular target: T9, ARHGAP21, Q5T5U3
T9 sequence (Q5T5U3 45-169, limits assumed, looked up): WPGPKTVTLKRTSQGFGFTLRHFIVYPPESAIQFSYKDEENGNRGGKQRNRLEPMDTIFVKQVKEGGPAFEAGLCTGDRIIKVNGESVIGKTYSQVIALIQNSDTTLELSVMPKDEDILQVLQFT

[17] = molecular target: Inadl_2, Q8NI35
Inadl_2, Q8NI35, sequence (Q8NI35 238-335): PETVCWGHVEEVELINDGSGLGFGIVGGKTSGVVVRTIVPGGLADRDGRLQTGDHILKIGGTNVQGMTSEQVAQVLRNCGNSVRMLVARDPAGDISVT

[18] = molecular target: GRIP2_5, Q9C0E4
GRIP2_5, Q9C0E4, sequence (Q9C0E4 544-642): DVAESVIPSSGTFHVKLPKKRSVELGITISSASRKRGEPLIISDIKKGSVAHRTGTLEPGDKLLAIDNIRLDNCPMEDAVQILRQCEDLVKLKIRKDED

[19] = molecular target: T10, CARD11, Q9BXL7
T10 sequence (Q9BXL7 662-765, limits assumed, looked up): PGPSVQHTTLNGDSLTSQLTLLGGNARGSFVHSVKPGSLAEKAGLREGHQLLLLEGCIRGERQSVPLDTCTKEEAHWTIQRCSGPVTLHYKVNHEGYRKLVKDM

[20] = molecular target: T11, LIN7C, Q9NUP9
T11 sequence (Q9NUP9 88-185, limits assumed, looked up): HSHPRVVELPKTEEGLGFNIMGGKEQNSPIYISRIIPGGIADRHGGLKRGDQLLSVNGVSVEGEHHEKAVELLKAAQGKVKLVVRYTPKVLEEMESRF

[21] = molecular target: PDLIM1, O00151
PDLIM1, O00151, sequence (O00151 1-87): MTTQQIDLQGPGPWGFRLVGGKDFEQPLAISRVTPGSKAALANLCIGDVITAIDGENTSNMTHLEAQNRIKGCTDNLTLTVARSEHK

[22] = molecular target: TJP1_3, Q07157
TJP1_3, Q07157, sequence (Q07157 416-512): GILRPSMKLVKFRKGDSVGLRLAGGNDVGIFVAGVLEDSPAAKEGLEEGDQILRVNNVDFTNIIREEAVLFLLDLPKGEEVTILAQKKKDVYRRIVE

[23] = molecular target: T12, RAPGEF6, Q8TEU7
T12 sequence (Q8TEU7 525-625, limits assumed, looked up): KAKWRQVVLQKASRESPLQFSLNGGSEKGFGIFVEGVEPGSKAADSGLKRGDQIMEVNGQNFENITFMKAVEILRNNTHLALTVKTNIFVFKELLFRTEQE

[24] = molecular target: ARHGEF12, Q9NZN5-2
ARHGEF12, Q9NZN5-2, sequence (Q9NZN5 other isoform, or with tags, fused parts or gaps): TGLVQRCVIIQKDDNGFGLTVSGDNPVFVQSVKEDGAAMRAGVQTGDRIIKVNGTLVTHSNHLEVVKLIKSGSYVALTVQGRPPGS

[25] = molecular target: PTPN3, P26045
PTPN3, P26045, sequence (P26045 505-587): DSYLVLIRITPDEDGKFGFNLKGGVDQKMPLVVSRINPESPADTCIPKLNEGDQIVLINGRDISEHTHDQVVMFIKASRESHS

[26] = plain residues with an end cap or a label only (N-terminal biotin on a linker: ahx)
[27] = plain residues with an end cap or a label only (N-terminal biotin on a linker: ado-ado)

HTRA2, O43464, sequence (O43464 355-458): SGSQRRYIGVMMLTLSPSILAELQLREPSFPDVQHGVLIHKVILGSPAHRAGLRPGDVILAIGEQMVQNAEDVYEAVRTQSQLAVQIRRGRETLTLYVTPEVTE
Inadl_3, Q8NI35, sequence (Q8NI35 359-469): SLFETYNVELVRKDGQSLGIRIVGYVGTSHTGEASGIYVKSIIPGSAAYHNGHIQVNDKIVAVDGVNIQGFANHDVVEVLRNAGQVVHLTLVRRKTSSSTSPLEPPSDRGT
IL16_4, Q14005, sequence (Q14005 1229-1329): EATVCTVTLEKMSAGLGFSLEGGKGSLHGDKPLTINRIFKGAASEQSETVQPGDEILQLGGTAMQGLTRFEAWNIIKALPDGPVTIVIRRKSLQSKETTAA

B1: RGS12, O14924 (peptide)
chain: KTSAHHATFV
pKd [1, 26]: 3.93 | pKd [2, 26]: below the threshold | pKd [3, 26]: below the threshold | pKd [4, 26]: 3.56 | pKd [5, 26]: 5.28 | pKd [6, 26]: below the threshold | pKd [7, 26]: below the threshold | pKd [8, 26]: 3.6 | pKd [9, 26]: below the threshold | pKd [10, 26]: below the threshold | pKd [11, 26]: below the threshold | pKd [12, 26]: 3.58 | pKd [13, 26]: 4.03 | pKd [14, 26]: 3.94 | pKd [15, 26]: 3.98 | pKd [16, 26]: below the threshold | pKd [17, 26]: below the threshold | pKd [18, 26]: below the threshold | pKd [19, 26]: below the threshold | pKd [20, 26]: below the threshold | pKd [21, 26]: below the threshold | pKd [22, 26]: below the threshold | pKd [23, 26]: below the threshold | pKd [24, 26]: 3.82 | pKd [25, 26]: 3.92

B2: NHERF3, Q5T2W1 (peptide)
chain: SSSNSEDTEM
pKd [1, 26]: below the threshold | pKd [2, 26]: below the threshold | pKd [3, 26]: below the threshold | pKd [4, 26]: below the threshold | pKd [5, 26]: below the threshold | pKd [6, 26]: below the threshold | pKd [7, 26]: below the threshold | pKd [8, 26]: below the threshold | pKd [9, 26]: below the threshold | pKd [10, 26]: below the threshold | pKd [11, 26]: below the threshold | pKd [12, 26]: below the threshold | pKd [13, 26]: below the threshold | pKd [14, 26]: below the threshold | pKd [15, 26]: below the threshold | pKd [16, 26]: below the threshold | pKd [17, 26]: below the threshold | pKd [18, 26]: below the threshold | pKd [19, 26]: below the threshold | pKd [20, 26]: below the threshold | pKd [21, 26]: below the threshold | pKd [22, 26]: below the threshold | pKd [23, 26]: below the threshold | pKd [24, 26]: below the threshold | pKd [25, 26]: 3.64

B3: HTR2C, P28335 (peptide)
chain: SVVSERISSV
pKd [1, 27]: below the threshold | pKd [2, 27]: below the threshold | pKd [3, 27]: below the threshold | pKd [4, 27]: below the threshold | pKd [5, 27]: 3.74 | pKd [6, 27]: below the threshold | pKd [7, 27]: below the threshold | pKd [8, 27]: 3.84 | pKd [9, 27]: below the threshold | pKd [10, 27]: below the threshold | pKd [11, 27]: below the threshold | pKd [12, 27]: below the threshold | pKd [13, 27]: below the threshold | pKd [14, 27]: below the threshold | pKd [15, 27]: 4.29 | pKd [16, 27]: below the threshold | pKd [17, 27]: below the threshold | pKd [18, 27]: below the threshold | pKd [19, 27]: below the threshold | pKd [20, 27]: below the threshold | pKd [21, 27]: below the threshold | pKd [22, 27]: below the threshold | pKd [23, 27]: below the threshold | pKd [24, 27]: 4.18 | pKd [25, 27]: 4.8
